T1: Biotinylated murine VEGF-164 (Acro Biosystem) (mouse, UniProt Q00731-2 27-190, biotinylated (site not stated))
T1 construct: Bought protein; also called Mouse VEGF164; mouse VEGFA
T1 sequence (looked up): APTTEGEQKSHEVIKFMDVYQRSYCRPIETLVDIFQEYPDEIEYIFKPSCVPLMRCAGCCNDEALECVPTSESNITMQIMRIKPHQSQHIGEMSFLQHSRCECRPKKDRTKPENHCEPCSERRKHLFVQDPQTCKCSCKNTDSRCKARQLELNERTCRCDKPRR

T2: Human VEGF-121 (Acro Biosystems) (human, UniProt P15692 207-395)
T2 construct: Bought protein; also called human VEGFA
T2 sequence: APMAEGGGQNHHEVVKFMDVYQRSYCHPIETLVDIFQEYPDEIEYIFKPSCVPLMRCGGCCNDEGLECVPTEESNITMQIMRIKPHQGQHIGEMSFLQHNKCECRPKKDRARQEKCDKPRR


Assays:
[1] = target: T1, Biotinylated murine VEGF-164 (Acro …); experiment: BLI, biotinylated antigen on streptavidin tips, 1:1 global fit
Description: (§1) Binding characterization was performed using BLI (Satorius) at RT with a 1000 rpm flow-rate. Biotinylated human VEGF-165 (Acro Biosystem) was immobilized onto Streptavidin-coated tips at a concentration of 3 μg/mL for 60 sec in BLI buffer (0.1% BSA and 0.01% Tween-20 in PBS). After a 30 sec baseline, anti-VEGFA DotBodies were associated at 8 different concentrations, including a blank reference, in BLI buffer for 60 sec, followed by a 400 sec dissociation in BLI buffer. The background buffer signal was subtracted using the 0 nM concentration reference, and the kinetics of binding were calculated using a global fit following a 1:1 binding model, using BLI Analysis Software. The bivalent molecule 16A2.1x2 was also characterized as described here, but with a 600 sec dissociation. To characterize the binding of all the clones against murine VEGFA, the same procedure was employed, but the immobilized target was replaced with biotinylated murine VEGF-164 (Acro Biosystem).

[2] = target: T3, Biotinylated human VEGF-165 (Acro Biosystem) (human, UniProt P15692 207-395, biotinylated (site not stated)); experiment: as above
T3 construct: Bought protein; also called human VEGFA
Description: as §1

[3] = target: T2, Human VEGF-121 (Acro Biosystems); experiment: competitive ELISA, inhibition of VEGF-121 (0.5 nM) binding to coated VEGFR1 (FIG. 5)
Description: (§2) To perform the competitive ELISA, the VEGFR1 was immobilized at a concentration of 2 μg/mL onto a Maxisorp 96-well plate (Thermo Scientific) overnight at 4° C., washed three times with PBS and blocked for 1 h at RT with ELISA Block Buffer (EBB: 0.2% BSA in PBST). […] The samples were incubated for 2 h at RT, and 50 μL transferred onto the VEGFR1-coated plate. After 2 h incubation, the plate was washed 3 times with PBST. 50 μL of streptavidin-HRP conjugate (Thermo Scientific) was added at a 1:5,000 dilution in EBB, and incubated for 1 h at RT. The plate was washed 5 times with PBST, and developed with 50 μL 3,3′,5,5′-Tetramethylbenzidine (TMB) substrate (GeneTex). After 5-15 min, the reactions were stopped by adding 50 μL of 2M H₂SO₄, and signal was measured at an absorbance of 450 nm.

[4] = target: T2, Human VEGF-121 (Acro Biosystems); experiment: competitive ELISA, inhibition of VEGF-121 (0.5 nM) binding to coated VEGFR1 (FIG. 4)
Description: as §2

[5] = target: T3, Biotinylated human VEGF-165 (Acro …); experiment: not stated at this place (BLI in Example 10)
Description: as §1

[6] = target: T3, Biotinylated human VEGF-165 (Acro …); experiment: BLI, biotinylated antigen on streptavidin tips, 600 sec dissociation, 1:1 global fit
Description: as §1

Kd [1] [nM]	koff [1] [s⁻¹]	kon [1] [M⁻¹ s⁻¹]	Kd [2] [nM]	koff [2] [s⁻¹]	kon [2] [M⁻¹ s⁻¹]	IC50 [3] [nM]	IC50 [4] [nM]	Kd [5] [nM]	Kd [6] [nM]	koff [6] [s⁻¹]	kon [6] [M⁻¹ s⁻¹]	Binder
8.7	0.000889	102000	2.78	0.000725	260000	0.9						20A3.1 (VHH, Autonomous humanised VH domain (DotBody), from the 16A2.1-based library with heat challenge; E. coli, ATG codon 5' (possible initiator Met), 3' hexahistidine tag; also called DotBody 20A3.1) VHH: EVQLVESGGGLVQPGGSLRLSCAISGFSLADTDIDWVRQAPGKGLEWVARIFSSSGSTYYADSVKGRFTISADTSKNTVYLQMNSLRAEDTAVYYCDRADSVGYNVIFPGSTYSRSGYRGQGTLVTVSS
8.34	0.00169	205000	2.8	0.000802	286000	1.4						23D5.1 (VHH, Autonomous humanised VH domain (DotBody), from the 16C2.1-based library without heat challenge; E. coli, ATG codon 5' (possible initiator Met), 3' hexahistidine tag; also called DotBody 23D5.1) VHH: EVQLVESGGGLVQPGGSLRLSCAISGFDLATTDIDWVRQAPGKGLEWVARIFRPSDFTDYADSVKGRFTISADTSKNTVYLQMNSLRAEDTAVYYCVRPDSYAYNILFVTRTFNALHYRGQGTLVTVSS
248	0.0104	41900	38.9	0.00475	122000		5900					13A6 (VHH, Autonomous humanised VH domain (DotBody); also called anti-VEGF DotBody 13A6; clone 13A6) VHH: EVQLVESGGGLVQPGGSLRLSCAISGFSLAATDIDWVRQAPGKGLEWVARIFPSAGSTDYADSVKGRFTISADTSKNTVYLQMNSLRAEDTAVYYCGRSDSYSYNVFLHNPTYTALDYRGQGTLVTVSS
16.6	0.00193	116000	2.5	0.000986	394000	3	12.2	< 5				16A2.1 (VHH, E. coli, ATG codon 5' (possible initiator Met), 3' hexahistidine tag; also called anti-VEGF DotBody 16A2.1; clone 16A2.1) VHH: EVQLVESGGGLVQPGGSLRLSCAISGFALAETDIDWVRQAPGKGLEWVARIFSSGGNTDYADSVKGRFTISADTSKNTVYLQMNSLRAEDTAVYYCGRSDSIAYNVILPNSTYTARDYRGQGTLVTVSS
18.4	0.00225	122000	14.7	0.00136	92400		41.4					16A6.1 (VHH, E. coli, ATG codon 5' (possible initiator Met), 3' hexahistidine tag; also called clone 16A6.1) VHH: EVQLVESGGGLVQPGGSLRLSCAISGFSLAATDIDWVRQAPGKGLEWVARIFPFSGSTDYTDSVKGRFTISADTSKNTVYLQMNSLRAEDTAVYYCGRSDSYSYNVFLHDPAYTALDYRGQGTLVTVSS
41.7	0.00243	58000	20.5	0.00099	48200	1						21D9.1 (VHH, Autonomous humanised VH domain (DotBody), from the 16C2.1-based library with heat challenge; E. coli, ATG codon 5' (possible initiator Met), 3' hexahistidine tag; also called DotBody 21D9.1) VHH: EVQLVESGGGLVQPGGSLRLSCAISGFSLGATDIDWVRQAPGKGLEWVARIFSPSDFTDYADSVKGRFTISADTSKNTVYLQMNSLRAEDTAVYYCSRPDTYAYNIFPHTASHGAFNYRGQGTLVTVSS
46.1	0.00292	63400	20	0.00118	58000	1.8						21A8.1 (VHH, Autonomous humanised VH domain (DotBody), from the 16C2.1-based library with heat challenge; E. coli, ATG codon 5' (possible initiator Met), 3' hexahistidine tag; also called DotBody 21A8.1) VHH: EVQLVESGGGLVQPGGSLRLSCAISGFSVDATDIDWVRQAPGKGLEWVARIFSPSGFTDYADSVKGRFTISADTSKNTVYLQMNSLRAEDTAVYYCDRPEFYAYNIFHDPRTVPAGNYRGQGTLVTVSS
13.8	0.00231	167000	11.3	0.00103	91500	0.9						21A1.1 (VHH, Autonomous humanised VH domain (DotBody), from the 16C2.1-based library with heat challenge; E. coli, ATG codon 5' (possible initiator Met), 3' hexahistidine tag; also called DotBody 21A1.1) VHH: EVQLVESGGGLVQPGGSLRLSCAISGFALATTDIDWVRQAPGKGLEWVARIFNPSDFTDYADSVKGRFTISADTSKNTVYLQMNSLRAEDTAVYYCGRPAVYGYNIFLDSPTYDASQYRGQGTLVTVSS
10.2	0.00135	132000	5.54	0.00055	97700	1.6						20A2.1 (VHH, Autonomous humanised VH domain (DotBody), from the 16A2.1-based library with heat challenge; E. coli, ATG codon 5' (possible initiator Met), 3' hexahistidine tag; also called DotBody 20A2.1) VHH: EVQLVESGGGLVQPGGSLRLSCAISGFPLADTDIDWVRQAPGKGLEWVARIFSSYGSTDYADSVKGRFTISADTSKNTVYLQMNSLRAEDTAVYYCGRSDSIAYNIILPASTYSSRDYRGQGTLVTVSS
									0.301	0.000128	426000	16A2.1x2 (VHH, Tandem of two 16A2.1 VH domains in one chain; 'produced in the same way' as the single clones (E. coli, ATG codon 5', 3' hexahistidine tag); also called bivalent molecule 16A2.1x2; bivalent 16A2.1x2 molecule) SEVQLVESGGGLVQPGGSLRLSCAISGFALAETDIDWVRQAPGKGLEWVARIFSSGGNTDYADSVKGRFTISADTSKNTVYLQMNSLRAEDTAVYYCGRSDSIAYNVILPNSTYTARDYRGQGTLVTVSSGGGGSGGGGSGGGGSGGGGSGGGGSGGGGSGGGGSEVQLVESGGGLVQPGGSLRLSCAISGFALAETDIDWVRQAPGKGLEWVARIFSSGGNTDYADSVKGRFTISADTSKNTVYLQMNSLRAEDTAVYYCGRSDSIAYNVILPNSTYTARDYRGQGTLVTVSSHHHHHH
14.2	0.00117	82800	6.3	0.000442	69600	7.5						21E6.1 (VHH, Autonomous humanised VH domain (DotBody), from the 16C2.1-based library with heat challenge; E. coli, ATG codon 5' (possible initiator Met), 3' hexahistidine tag; also called DotBody 21E6.1) VHH: EVQLVESGGGLVQPGGSLRLSCAISGFTLAATDIDWVRQAPGKGLEWVARIFTPTGFSDYADSVKGRFTISADTSKNTVYLQMNSLRAEDTAVYYCGIPELYAYNIFMDIPAYNDVYYRGQGTLVTVSS

— patent US20240132580A1 (DOTBIO PTE, published 2024)
